# Laboratory results as given in the supplement of paper PMC6757056.
# ± gives the standard deviation of the averaged measurements.
# B1: library; a variant is named by its letters at N, in order (parent)
# chain: GCUGUCACCGGUGUAUUACCCUAGUGGUCGACCGGUCUGAUGAGUCUNNNNNNAGACGAAACAGC
# Experiments:
# [1] = variants of: B1; test: FACS-Seq fitted mean relative fluorescence mCherry/BFP without ligand (log10 relative fluorescence); ligand: hypoxanthine (xanthine aptamer); higher = higher reporter protein expression; details: HEK293T, ligand present: no
# Outline: (§1)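 Fluorescence figures are normalized fitted normal means of sequenced bin counts. Enriched, lentivirally transduced HEK293T libraries with a ribozyme-switch mCherry reporter and EF1α-BFP were held 48 h with or without ligand, then sorted into 6 mCherry/BFP bins. PCR-amplified, barcoded genomic DNA from each bin was sequenced on MiSeq. Means of log10(mCherry/BFP) were scaled to five spiked-in control ribozymes.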
# [2] = variants of: B1; test: normalized RNA/DNA level with ligand (relative to sTRSVctl = 100) (log10 (% of sTRSVctl)); ligand: hypoxanthine (xanthine aptamer); higher = less ribozyme self-cleavage, higher mRNA level; details: ligand concentration (+) RNA-Seq: 5 mM, HEK293T, reporter: mCherry (pCS4076), ligand present: yes
# Outline: (§2)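 Ribozyme switch library plasmids with mCherry reporters (eGFP in certain ligand experiments) went into HEK293T cells at 4 µg per 6-well well. Where ligand was used, it was applied 1 h before transfection, and total RNA was extracted with EDTA 72 h later for reverse transcription, amplification, barcoding and sequencing. RNA level is the RNA-to-DNA read ratio normalized to a spiked-in non-cleaving sequence or to the leading sequences, then scaled and log-transformed. Scaling was ×100 with log10, the leading set comprised 25 sequences, and the cutoff was ≥100 DNA reads.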
# [3] = variants of: B1; test: normalized RNA/DNA level without ligand (relative to sTRSVctl = 100) (log10 (% of sTRSVctl)); ligand: hypoxanthine (xanthine aptamer); higher = less ribozyme self-cleavage, higher mRNA level; details: HEK293T, reporter: mCherry (pCS4076), ligand present: no
# Outline: as §2
# [4] = variants of: B1; test: FACS-Seq fitted mean relative fluorescence mCherry/BFP with ligand (log10 relative fluorescence); ligand: hypoxanthine (xanthine aptamer); ligand concentration (+) FACS-Seq: 5 mM; higher = higher reporter protein expression; details: HEK293T, ligand present: yes
# Outline: as §1
variant,measurement,setting,value
GCUGUCACCGGUGUAUUACCCUAGUGGUCGACCGGUCUGAUGAGUCUGGCAACAGACGAAACAGC [GGCAAC],FACS-Seq fitted mean (log10),[1],-0.242 ± 0.05
same,normalized RNA/DNA level with ligand (log10),[2],1.947 ± 0.0067
same,normalized RNA/DNA level without ligand (log10),[3],1.86 ± 0.024
same,FACS-Seq fitted mean (log10),[4],-0.0947 ± 0.011
GCUGUCACCGGUGUAUUACCCUAGUGGUCGACCGGUCUGAUGAGUCUGGCAAUAGACGAAACAGC [GGCAAU],FACS-Seq fitted mean (log10),[1],-0.272 ± 0.047
same,normalized RNA/DNA level with ligand (log10),[2],1.92 ± 0.04
same,normalized RNA/DNA level without ligand (log10),[3],1.86 ± 0.024
same,FACS-Seq fitted mean (log10),[4],-0.0445 ± 0.018
GCUGUCACCGGUGUAUUACCCUAGUGGUCGACCGGUCUGAUGAGUCUGGCAAAAGACGAAACAGC [GGCAAA],FACS-Seq fitted mean (log10),[1],-0.106 ± 0.017
same,normalized RNA/DNA level with ligand (log10),[2],1.9638 ± 0.0011
same,normalized RNA/DNA level without ligand (log10),[3],1.83 ± 0.037
same,FACS-Seq fitted mean (log10),[4],-0.0498 ± 0.0022
GCUGUCACCGGUGUAUUACCCUAGUGGUCGACCGGUCUGAUGAGUCUGGCAAGAGACGAAACAGC [GGCAAG],FACS-Seq fitted mean (log10),[1],0.564 ± 0.072
same,normalized RNA/DNA level with ligand (log10),[2],1.88 ± 0.028
same,normalized RNA/DNA level without ligand (log10),[3],1.47 ± 0.022
same,FACS-Seq fitted mean (log10),[4],0.712 ± 0.075
GCUGUCACCGGUGUAUUACCCUAGUGGUCGACCGGUCUGAUGAGUCUGGAUUGAGACGAAACAGC [GGAUUG],FACS-Seq fitted mean (log10),[1],0.023 ± 0.012
same,normalized RNA/DNA level with ligand (log10),[2],1.857 ± 0.017
same,normalized RNA/DNA level without ligand (log10),[3],1.42 ± 0.059
same,FACS-Seq fitted mean (log10),[4],0.4602 ± 0.0025
GCUGUCACCGGUGUAUUACCCUAGUGGUCGACCGGUCUGAUGAGUCUAGCAAGAGACGAAACAGC [AGCAAG],FACS-Seq fitted mean (log10),[1],0.616 ± 0.025
same,normalized RNA/DNA level with ligand (log10),[2],1.81 ± 0.024
same,normalized RNA/DNA level without ligand (log10),[3],1.45 ± 0.056
same,FACS-Seq fitted mean (log10),[4],0.87 ± 0.096
GCUGUCACCGGUGUAUUACCCUAGUGGUCGACCGGUCUGAUGAGUCUAGCAAUAGACGAAACAGC [AGCAAU],FACS-Seq fitted mean (log10),[1],0.645 ± 0.018
same,normalized RNA/DNA level with ligand (log10),[2],1.9127 ± 0.00078
same,normalized RNA/DNA level without ligand (log10),[3],1.8332 ± 0.00014
same,FACS-Seq fitted mean (log10),[4],0.608 ± 0.03
GCUGUCACCGGUGUAUUACCCUAGUGGUCGACCGGUCUGAUGAGUCUAGCAACAGACGAAACAGC [AGCAAC],FACS-Seq fitted mean (log10),[1],0.133 ± 0.046
same,normalized RNA/DNA level with ligand (log10),[2],1.91 ± 0.054
same,normalized RNA/DNA level without ligand (log10),[3],1.79 ± 0.043
same,FACS-Seq fitted mean (log10),[4],0.1066 ± 0.00061
GCUGUCACCGGUGUAUUACCCUAGUGGUCGACCGGUCUGAUGAGUCUUGAUUCAGACGAAACAGC [UGAUUC],FACS-Seq fitted mean (log10),[1],0.59 ± 0.061
same,normalized RNA/DNA level with ligand (log10),[2],1.993 ± 0.0057
same,normalized RNA/DNA level without ligand (log10),[3],1.977 ± 0.011
same,FACS-Seq fitted mean (log10),[4],0.627 ± 0.06
GCUGUCACCGGUGUAUUACCCUAGUGGUCGACCGGUCUGAUGAGUCUUGAUUUAGACGAAACAGC [UGAUUU],FACS-Seq fitted mean (log10),[1],0.485 ± 0.022
same,normalized RNA/DNA level with ligand (log10),[2],1.945 ± 0.0024
same,normalized RNA/DNA level without ligand (log10),[3],1.924 ± 0.012
same,FACS-Seq fitted mean (log10),[4],0.6805 ± 0.0064
GCUGUCACCGGUGUAUUACCCUAGUGGUCGACCGGUCUGAUGAGUCUAGAUUCAGACGAAACAGC [AGAUUC],FACS-Seq fitted mean (log10),[1],0.691 ± 0.017
same,normalized RNA/DNA level with ligand (log10),[2],1.92 ± 0.051
same,normalized RNA/DNA level without ligand (log10),[3],1.92 ± 0.037
same,FACS-Seq fitted mean (log10),[4],0.707 ± 0.069
GCUGUCACCGGUGUAUUACCCUAGUGGUCGACCGGUCUGAUGAGUCUCGAUUUAGACGAAACAGC [CGAUUU],FACS-Seq fitted mean (log10),[1],0.4582 ± 0.0022
same,normalized RNA/DNA level with ligand (log10),[2],1.92 ± 0.089
same,normalized RNA/DNA level without ligand (log10),[3],1.847 ± 0.012
same,FACS-Seq fitted mean (log10),[4],0.5218 ± 0.0046
GCUGUCACCGGUGUAUUACCCUAGUGGUCGACCGGUCUGAUGAGUCUCGAUUAAGACGAAACAGC [CGAUUA],FACS-Seq fitted mean (log10),[1],0.312 ± 0.038
same,normalized RNA/DNA level with ligand (log10),[2],1.9239 ± 0.001
same,normalized RNA/DNA level without ligand (log10),[3],1.64 ± 0.034
same,FACS-Seq fitted mean (log10),[4],0.569 ± 0.13
GCUGUCACCGGUGUAUUACCCUAGUGGUCGACCGGUCUGAUGAGUCUCGAUUCAGACGAAACAGC [CGAUUC],FACS-Seq fitted mean (log10),[1],0.279 ± 0.048
same,normalized RNA/DNA level with ligand (log10),[2],1.976 ± 0.0063
same,normalized RNA/DNA level without ligand (log10),[3],1.89 ± 0.02
same,FACS-Seq fitted mean (log10),[4],0.313 ± 0.0095
GCUGUCACCGGUGUAUUACCCUAGUGGUCGACCGGUCUGAUGAGUCUAGAUGUAGACGAAACAGC [AGAUGU],FACS-Seq fitted mean (log10),[1],0.466 ± 0.021
same,normalized RNA/DNA level with ligand (log10),[2],1.9 ± 0.037
same,normalized RNA/DNA level without ligand (log10),[3],1.56 ± 0.031
same,FACS-Seq fitted mean (log10),[4],0.748 ± 0.053
GCUGUCACCGGUGUAUUACCCUAGUGGUCGACCGGUCUGAUGAGUCUAGAUGGAGACGAAACAGC [AGAUGG],FACS-Seq fitted mean (log10),[1],-0.23 ± 0.04
same,normalized RNA/DNA level with ligand (log10),[2],1.84 ± 0.035
same,normalized RNA/DNA level without ligand (log10),[3],1.36 ± 0.019
same,FACS-Seq fitted mean (log10),[4],0.0811 ± 0.0062
GCUGUCACCGGUGUAUUACCCUAGUGGUCGACCGGUCUGAUGAGUCUUGCAAAAGACGAAACAGC [UGCAAA],FACS-Seq fitted mean (log10),[1],0.613 ± 0.029
same,normalized RNA/DNA level with ligand (log10),[2],1.879 ± 0.0083
same,normalized RNA/DNA level without ligand (log10),[3],1.787 ± 0.017
same,FACS-Seq fitted mean (log10),[4],0.635 ± 0.019
GCUGUCACCGGUGUAUUACCCUAGUGGUCGACCGGUCUGAUGAGUCUUGCAAGAGACGAAACAGC [UGCAAG],FACS-Seq fitted mean (log10),[1],0.123 ± 0.078
same,normalized RNA/DNA level with ligand (log10),[2],1.853 ± 0.0049
same,normalized RNA/DNA level without ligand (log10),[3],1.72 ± 0.021
same,FACS-Seq fitted mean (log10),[4],0.179 ± 0.031
GCUGUCACCGGUGUAUUACCCUAGUGGUCGACCGGUCUGAUGAGUCUAGCACAAGACGAAACAGC [AGCACA],FACS-Seq fitted mean (log10),[1],-0.251 ± 0.011
same,normalized RNA/DNA level with ligand (log10),[2],1.92 ± 0.044
same,normalized RNA/DNA level without ligand (log10),[3],1.787 ± 0.0038
same,FACS-Seq fitted mean (log10),[4],-0.513 ± 0.043
GCUGUCACCGGUGUAUUACCCUAGUGGUCGACCGGUCUGAUGAGUCUAGCACCAGACGAAACAGC [AGCACC],FACS-Seq fitted mean (log10),[1],-0.563 ± 0.05
same,normalized RNA/DNA level with ligand (log10),[2],1.98 ± 0.063
same,normalized RNA/DNA level without ligand (log10),[3],1.844 ± 0.0071
same,FACS-Seq fitted mean (log10),[4],-0.00735 ± 0.0039
GCUGUCACCGGUGUAUUACCCUAGUGGUCGACCGGUCUGAUGAGUCUCGCAAAAGACGAAACAGC [CGCAAA],FACS-Seq fitted mean (log10),[1],0.57 ± 0.013
same,normalized RNA/DNA level with ligand (log10),[2],1.897 ± 0.0028
same,normalized RNA/DNA level without ligand (log10),[3],1.7 ± 0.022
same,FACS-Seq fitted mean (log10),[4],0.491 ± 0.024
